Measured values as given in the supplement of paper PMC9170038.

Tested on: MS2 coat protein
Test: apparent KD of MS2 coat protein; designed switch direction (-1 OFF switch, 1 ON switch): -1; higher = weaker reporter binding
Method in brief: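 Designed RNA switches sharing common flanks were transcribed on Illumina chips by stalled E. coli RNA polymerase. They were titrated with SNAP-549-labelled MS2 coat protein, from 0.7 or 1.5 nM doubling to 3 µM, in Tris-HCl pH 7.5 buffer with KCl, MgCl2, BSA, DTT, tRNA and Tween-20. Titrations ran without input, with 200 uM small-molecule ligand, or with an oligonucleotide input. The apparent KD of each design is the median over its clusters, after curve-fitting of normalised cluster fluorescence.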

[1] = Eterna round: R95, input ligand: FMN 200 uM
[2] = Eterna round: R95, input ligand: microRNA oligo, concentration not stated
[3] = Eterna round: R95, input ligand: none

Sequence | apparent KD of MS2 coat protein (input ligand: FMN 200 uM) [µM] | apparent KD of MS2 coat protein (input ligand: none) [µM] | apparent KD of MS2 coat protein [2] [µM] | also measured
CCCGUGUGAGGAUAUACUCUAAGCAAUGUCAGUUGCUACAGGUAGAAGGCACAUGAGGAUCACCCAUGUCCCGG [EX4 C.24] (Eterna round: R97, puzzle: Exclusion 4) | 0.13 | 0.241 |  | 
CCCUCACAUGAGGAUCACCCAUGUCAGGAUAUAGUGCGAUUGUCGAUAUGAAAUUGCAUUAGAAGGGAUUAGGC [Eternabot (L1) Solution 67] (Eterna round: R97, puzzle: Exclusion 1) | 0.0248 | 0.0175 |  | 
CCCUCACAUGAGGAUCACCCAUGUCAGGAUAUUCAGGUCACGCAAAAGCGGUUCCAAAGGAGAAGGGACAUCAA [Cequusso] (puzzle: Exclusion 1) |  |  | 0.0242 | apparent KD of MS2 coat protein [1]: 0.0438 µM; apparent KD of MS2 coat protein [3]: 0.0309 µM
CCCUCACUUGAGGAUCACCCAAGUCAGGAUAUCUCACCCGUCCUGCAAGACGGGUCACAGAGAAGGGACUAAAA [Araatra] (Eterna round: R97, puzzle: Exclusion 1) | 0.069 | 0.0219 |  | 
CCCUCGCGAGGAUAUGCAUCCUCCCUCAUUUCUUUCACUACACAUGAGGAUCACCCAUGUAGAAGGCGCUCUCC [Nina] (puzzle: Exclusion 2) |  |  | 0.0412 | 
CCGAAGGCAGGAUAUACAGGACAGACCCAUCAGAGCAGACUACAUGAGGAUCACCCAUGUAGAAGGGCCUUCAA [Eternabot (Original) Solution 26] (Eterna round: R97, puzzle: Exclusion 2) | 0.154 | 0.0187 |  | 
CCGAAUAUGCAGGAUAUCGUAUCGGAAACGAUACGAGAAGGGCAAACAUGAGGAUCACCCAUGUUCCUUAACGG [Fiskers Ex 6 - 14] (puzzle: Exclusion 6) |  |  | 0.0158 | 
CCGAAUAUGUAGGAUAUCGUAUCGGAAACGAUACGAGAAGGACAAACAUGAGGAUCACCCAUGUUCCUUAACGG [Fiskers Ex 6 - 12] (puzzle: Exclusion 6) |  |  | 0.0156 | apparent KD of MS2 coat protein [1]: 0.0185 µM; apparent KD of MS2 coat protein [3]: 0.015 µM
CCGCAAAUUGAGGAUAUCGUAUCGGAUACGAUACGAGAAGGCGAAACAUGAGGAUCACCCAUGUGUCCUAGCGG [Fiskers Ex 6 - 33] (puzzle: Exclusion 6) |  |  | 0.012 | apparent KD of MS2 coat protein [1]: 0.0182 µM; apparent KD of MS2 coat protein [3]: 0.0144 µM
CCGCAGCAAGGAUAUACUUGCGGUGGUGAACGAGGGCUUAUACUUGAGGAUCACCCAAGUAGAAGGUGCAAAAC [Mamaed] (Eterna round: R97, puzzle: Exclusion 2) | 0.0339 | 0.0224 |  | 
CCGCUGUGAGGAUAUUAGUAGUAGUCAGAAAAGACUAUUACUGAGAAGGCACAUGAGGAUCACCCAUGUGGCGG [Mat - Exclusion 4 - Eli Mod - D47] (Eterna round: R97, puzzle: Exclusion 4) | 0.0314 | 0.0215 |  | 
CCGGAAAAGGAGGAUAUAGGAGUCGAUAGACACCUAGAAGGCCUGACAUGAGGAUCACCCAUGUGUCCUACCGG [Fiskers Ex 6 - 92] (puzzle: Exclusion 6) |  |  | 0.0179 | apparent KD of MS2 coat protein [1]: 0.0383 µM; apparent KD of MS2 coat protein [3]: 0.0168 µM
CCGGAAAUGCAGGAUAUCGUAUCGGAAACGAUACGAGAAGGGUAUACAUGAGGAUCACCCAUGUGUCCUACCGG [Fiskers Ex 6 - 21] (puzzle: Exclusion 6) |  |  | 0.0206 | 
CCGGAACAUGAGGAUCACCCAUGUCAGGAUAUCUCAAAAUCGUCGAUAGACGAUAACAAGAGAAGGGACACCGG [Mat - Exclusion 1 - Eli Mod - D29] (Eterna round: R97, puzzle: Exclusion 1) | 0.0234 | 0.0208 |  | 
CCGGAACAUGAGGAUCACCCAUGUGAGGAUAUCGUACGUUCGUCGAAAGACGAUCGUACGAGAAGGCACGCCGG [Eli x1 4.33] (Eterna round: R97, puzzle: Exclusion 1) | 0.0172 | 0.0146 |  | 
CCGGAUAUGCAGGAUAUCGUAUCGGAUACGAUACGAGAAGGGUAUACAUGAGGAUCACCCAUGUGCCUUACCGG [Mat - Exclusion 6 - Eli Mod - D83] (puzzle: Exclusion 6) |  |  | 0.018 | 
CCGGCGUGGUGCGGUUGUCGUUCGACAUGAGGAUCACCCAUGUAGGAUAUGCGCGUGGUCGCGCCGCAGAAGGGCAUCGUUUGG [Random, 15% A] (Eterna round: R96, puzzle: Exclusion NG 3) | 0.0107 | 0.0145 |  | apparent KD of MS2 coat protein (input ligand: microRNA oligo, concentration not stated): 0.0107 µM
CCGGCUGCUGUGAGGAUAUGCCUGUGGGUGCGUGGGCAGAAGGCACAUGAGGAUCACCCAUGUCCUGCGGUCCC [salish99_bmx4_r4_114] (Eterna round: R97, puzzle: Brourd's mod of Exclusion 4) | 0.021 | 0.0266 |  | 
